Assay [1] addresses T1, ICOS (Inductible T cell costimulator) (UniProt Q9Y6W8 21-199, limits assumed).
T1 construct: whole, on cells; also called ICOS on JICOS.1 cells
T1 sequence (looked up): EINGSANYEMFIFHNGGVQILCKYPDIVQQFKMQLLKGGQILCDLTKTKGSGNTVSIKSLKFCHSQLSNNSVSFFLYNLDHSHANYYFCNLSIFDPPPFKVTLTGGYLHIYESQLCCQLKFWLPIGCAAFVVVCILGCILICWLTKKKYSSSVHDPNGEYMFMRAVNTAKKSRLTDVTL
Nature of the assay: flow cytometry on JICOS.1 cells (ICOS transfectants), mAb titration revealed with GAM-PE; printed as [ED] 50. On the procedure:
(§1) The inventors developed 5 anti-ICOS Abs. Their isotype was assayed by ELISA. For obtaining an indirect analysis of their affinity for their receptor, mAbs were tested using stable transfectants expressing ICOS. JICOS.1 cells were in the presence of an increasing range of anti-ICOS mAbs labeled with a probe coupled to a fluorochrome (PE-GAM: Goat anti mouse-PE) and the analysis was made thanks to cytometry flow.
Background: Flow cytometry measures light scatter and fluorescence of single cells or particles in a stream.

Assay [2] deals with T1, ICOS (Inductible T cell costimulator). Nature of the assay: flow cytometry on JICOS.1 cells, inhibition of ICOS L-Fc binding to ICOS, revealed with GAH-PE; printed as [ID] 50. The source says: (§2) They used a gradient of concentration of anti-ICOS mAbs and theyr reveled the fixation to ICOS L Fc thanks to a probe coupled to a fluorochrom (GAH-PE: Goat anti-human-PE). The analysis was made by flow cytometry.

For assay [3] the target is unchanged. Nature of the assay: flow cytometry on JICOS.1 cells, mAb titration revealed with GAM-PE; printed as ED 50. As for the experimental part: as §1
Assay [4] shares this target. Nature of the assay: flow cytometry on JICOS.1 cells, inhibition of ICOS L-Fc binding to ICOS; printed as ID 50.
From the text: as §2

Consider 2 molecules from patent US20160264666A1 (INSERM INSTITUT NATIONAL DE LA SANTE ET DE LA RECHERCHE …, published 2016).

Some results are limits rather than exact numbers.

As a reminder, the EC50 is the concentration that produces a half-maximal response. For orientation: IC50 means the concentration that inhibits the measured activity by half. Read a low IC50 as greater potency.

B1: ICOS 88-2 (antibody, V domains shown)
VH: QVQLQQPGAELVRPGASVKLSCKASGYSFTSYWINWVKQRPGQGLEWIGNIYPSDSYTNYNQMFKDKATLTVDKSSNTAYMQLTSPTSEDSAVYYCTRWNLSYYFDNNYYLDYWGQGTTLTVSS
VL: DIVMTQAAPSVPVTPGESVSISCRSSKSLLHSNGNTYLYWFLQRPGQSPQLLIYRMSNLASGVPDRFSGSGSGTAFTLRISRVEAEDVGVYYCMQHLEYPWTFGGGTKLEIK
notes: Mouse hybridoma monoclonal antibody; isotype printed as IgG1-L; Agonist of ICOS; also called anti-ICOS mAb 88-2
B1 had an EC50 in assay [1] of 1.6 µg/mL. The IC50 in assay [2] was 17 µg/mL.

B2: ICOS 314-8 (antibody, V domains shown)
VH: QVQLQQPGTELMKPGASVKLSCKASGYTFTTYWMHWVKQRPGQGLEWIGEIDPSDSYVNYNQNFKGKATLTVDKSSSTAYIQLSSLTSEDSAVYFCARSPDYYGTSLAWFDYWGQGTLVTVST
VL: DIVMTQAAPSVPVTPGESVSISCRSSKSPLHSNGNIYLYWFLQRPGQSPQLLIYRMSNLASGVPDRFSGSGSGTTFTLKISRVEAEDVGVYYCMQHLEYPYTFGGGTKLEIK
notes: Mouse hybridoma monoclonal antibody; isotype printed as IgG1-K; Antagonist of ICOS
As for B2, the results for the EC50 in assay [1] and in assay [3] were 0.06 µg/mL and under 0.5 µg/mL, respectively. For the same molecule, the results for the 50% inhibitory concentration (IC50) in assay [2] and in assay [4] were 0.29 µg/mL and under 1000 µg/mL, respectively.
